# From publication PMC9452428, “Molecular study on recombinant cold-adapted, detergent- and alkali stable esterase (EstRag) from Lysinibacillus sp.: a member of family VI” (World Journal of Microbiology & Biotechnology, 2022)
# Tested on: CC(=O)Oc1ccc([N+](=O)[O-])cc1
# Assay: purified protein
# Conditions: 50 mM Tris-HCl pH 8.0, room temperature, substrate 0.0015-3.0 mM
substance,measurement,value
EstRag (Lysinibacillus sp. YS11),Km,31 µM
same,kcat,20.4 s⁻¹
same,kcat/Km,658000 M⁻¹ s⁻¹
